Test results as given in patent US20250012721A1, “FLUORESCENCE DETECTION KIT FOR ACTIVATED COMPLEMENT C1s, DETECTION METHOD USING SAME, AND USE THEREOF” (JIANGSU UNIVERSITY, priority 2022, published 2025).

B1: MASP2: interfering antigenic substance (complement analogue), from Abnova (protein)
chain: TPLGPKWPEPVFGRLASPGFPGEYANDQERRWTLTAPPGYRLRLYFTHFDLELSHLCEYDFVKLSSGAKVLATLCGQESTDTERAPGKDTFYSLGSSLDITFRSDYSNEKPFTGFEAFYAAEDIDECQVAPGEAPTCDHHCHNHLGGFYCSCRAGYVLHRNKRTCSALCSGQVFTQRSGELSSPEYPRPYPKLSSCTYSISLEEGFSVILDFVESFDVETHPETLCPYDFLKIQTDREEHGPFCGKTLPHRIETKSNTVTITFVTDESGDHTGWKIHYTSTAQPCPYPMAPPNGHVSPVQAKYILKDSFSIFCETGYELLQGHLPLKSFTAVCQKDGSWDRPMPACSIVDCGPPDDLPSGRVEYITGPGVTTYKAVIQYSCEETFYTMKVNDGKYVCEADGFWTSSKGEKSLPVCEPVCGLSARTTGGRIYGGQKAKPGDFPWQVLILGGTTAAGALLYDNWVLTAAHAVYEQKHDASALDIRMGTLKRLSPHYTQAWSEAVFIHEGYTHDAGFDNDIALIKLNNKVVINSNITPICLPRKEAESFMRTDDIGTASGWGLTQRGFLARNLMYVDIPIVDHQKCTAAYEKPPYPRGSVTANMLCAGLESGGKDSCRGDSGGALVFLDSETERWFVGGIVSWGSMNCGEAGQYGVYTKVINYIPWIENIISDF
B2: MASP1: interfering antigenic substance (complement analogue), from Abnova (protein)
chain: HTVELNNMFGQIQSPGYPDSYPSDSEVTWNITVPDGFRIKLYFMHFNLESSYLCEYDYVKVETEDQVLATFCGRETTDTEQTPGQEVVLSPGSFMSITFRSDFSNEERFTGFDAHYMAVDVDECKEREDEELSCDHYCHNYIGGYYCSCRFGYILHTDNRTCRVECSDNLFTQRTGVITSPDFPNPYPKSSECLYTIELEEGFMVNLQFEDIFDIEDHPEVPCPYDYIKIKVGPKVLGPFCGEKAPEPISTQSHSVLILFHSDNSGENRGWRLSYRAAGNECPELQPPVHGKIEPSQAKYFFKDQVLVSCDTGYKVLKDNVEMDTFQIECLKDGTWSNKIPTCKIVDCRAPGELEHGLITFSTRNNLTTYKSEIKYSCQEPYYKMLNNNTGIYTCSAQGVWMNKVLGRSLPTCLPVCGLPKFSRKLMARIFNGRPAQKGTTPWIAMLSHLNGQPFCGGSLLGSSWIVTAAHCLHQSLDPEDPTLRDSDLLSPSDFKIILGKHWRLRSDENEQHLGVKHTTLHPQYDPNTFENDVALVELLESPVLNAFVMPICLPEGPQQEGAMVIVSGWGKQFLQRFPETLMEIEIPIVDHSTCQKAYAPLKKKVTRDMICAGEKEGGKDACAGDSGGPMVTLNRERGQWYLVGTVSWGDDCGKKDRYGVYSYIHHNKDWIQRVTGVRN
B3: Double-stranded C1r: interfering antigenic substance (complement analogue) that might exist in serum (protein)
chain: SIPIPQKLFGEVTSPLFPKPYPNNFETTTVITVPTGYRVKLVFQQFDLEPSEGCFYDYVKISADKKSLGRFCGQLGSPLGNPPGKKEFMSQGNKMLLTFHTDFSNEENGTIMFYKGFLAYYQAVDLDECASRSKSGEEDPQPQCQHLCHNYVGGYFCSCRPGYELQEDTHSCQAECSSELYTEASGYISSLEYPRSYPPDLRCNYSIRVERGLTLHLKFLEPFDIDDHQQVHCPYDQLQIYANGKNIGEFCGKQRPPDLDTSSNAVDLLFFTDESGDSRGWKLRYTTEIIKCPQPKTLDEFTIIQNLQPQYQFRDYFIATCKQGYQLIEGNQVLHSFTAVCQDDGTWHRAMPRCKIKDCGQPRNLPNGDFRYTTTMGVNTYKARIQYYCHEPYYKMQTRAGSRESEQGVYTCTAQGIWKNEQKGEKIPRCLPVCGKPVNPVEQRQRIIGGQKAKMGNFPWQVFTNIHGRGGGALLGDRWILTAAHTLYPKEHEAQSNASLDVFLGHTNVEELMKLGNHPIRRVSVHPDYRQDESYNFEGDIALLELENSVTLGPNLLPICLPDNDTFYDLGLMGYVSGFGVMEEKIAHDLRFVRLPVANPQACENWLRGKNRMDVFSQNMFCAGHPSLKQDACQGDSGGVFAVRDPNTDRWVATGIVSWGIGCSRGYGFYTKVLNYVDWIKKEMEEED

Test system: activated C1s
Test: Cross reaction test of fluorescence detection method for activated C1s
Format: biochemical
Conditions: for Measured concentration: interferent in PBS: double-stranded C1r 660 μg/mL, MASP1 and MASP2 5000 μg/mL; for Cross reaction rate (%): measured value/theoretical value×100%
Description: • 1. Preparation of a buffer: 1) Binding Buffer: 0.1 M morpholinoethanesulfonic acid (MES, pH=5.0); • 2) Washing Buffer: TBS containing 0.05% Tween 20; • 3) Blocking Buffer: containing 0.05 M Tris, 1.0% BSA, and 0.05% Tween 20; • 4) Desired Buffer: Tris buffer containing 0.05% Tween 20 and BSA; and • 5) Tris Buffer: 0.05 M Tris, 0.15 M NaCl, and 0.2% (w/v) polyethylene glycol 8000. • 2. Preparation of immunomagnetic beads (C1s recombinant antibody-coupled magnetic beads) • (1) 10 mg of magnetic beads (Merck carboxyl magnetic beads, with a particle size of 1 μm) were washed 3 times with 1 mL of Binding Buffer, and vortexed to mix evenly. • (2) 20 μg of the C1s recombinant antibody obtained in Example 1 was added into every 1 mg of the magnetic beads, mixed well, and vortexed at a room temperature (25° C.) for 15 min. • (3) 50 μg of a coupling agent was added into every 1 mg of the magnetic beads, mixed well, and vortexed at a room temperature for 1 h. • (4) 1 mL of Binding Buffer was added and vortexed at a room temperature for 3 h. • (5) The magnetic beads were washed 4 times with 0.5 mL of Washing Buffer. • (6) The magnetic beads were resuspended with 1 mL of Desired Buffer to obtain C1s recombinant antibody-coupled magnetic beads with a concentration of 5 mg/mL, and stored at 4° C. until later use. • 3. Detection of the enzymatic activity of activated C1s • (1) 60 μL of the C1s recombinant antibody-coupled magnetic beads were stirred evenly, subjected to magnetic suction to remove a supernatant, added with 200 μL of PBS to mix well, subjected to the magnetic suction to remove a supernatant, and washed repeatedly 2 times. • (2) 10 μL of a sample to be tested or activated C1s standards with different concentrations were diluted to 100 μL with PBS, and mixed vertically with the C1s recombinant antibody-coupled magnetic beads at a room temperature for 10 min. The magnetic suction was performed to discard a supernatant. According to the enzymatic activity of the C1s standard determined in Example 4, the enzymatic activity conversion of the C1s standards with different concentrations is shown in Table 2.
• (3) The magnetic beads were repeatedly washed 3 times with 100 μL of PBS. • (4) The magnetic beads were resuspended with 90 μL of Tris buffer. • (5) 10 μL of substrate peptide 3 was added at a concentration of 1 μg/mL. • (6) The detection was performed with a microplate reader at 360/40 excitation light wave and 460/40 emission light wave, with a best reaction time of 1 h as a detection point, and the fluorescence signals were measured and recorded. The straight line fitting was performed by taking a C1s enzymatic activity as an abscissa and a fluorescence signal as an ordinate with a double logarithmic Log-Log mathematical model and using a least square method to plot a standard curve.
In this example, the specificity of the activated C1s was tested. The interfering antigenic substances (complement analogues) that might exist in serum were detected, such as double-stranded C1r, MASP1, and MASP2. The double-stranded C1r, MASP1, and MASP2 were separately diluted with PBS, and the diluted concentrations were 0.66 mg/mL, 5 mg/mL, and 5 mg/mL, successively. The complement analogues were detected based on the steps of Example 5. A cross reaction rate of various substances was calculated. Cross reaction rate=measured value/theoretical value×100%. […] The cross reaction rates were all less than 0.5%.

Molecule	Measured concentration (C1s equivalent in brackets) [µg/mL]	Measured concentration [pmol/min/µg]	Cross reaction rate (%)	Cross reaction rate (%) (listed as double-stranded C1r)
B1	1.8	1.64	0.04	
B2	2	1.82	0.04	
B3	1	0.91	0.15	0.3
